T1: in-line fusion protein of human IL-36R extracellular domain and IL1RAcP extracellular domain expressed with … (human; mouse, UniProt Q9HB29 20-337; Q9NPH3 21-359, limits assumed)
T1 construct: not shown: mouse IgG2a Fc
T1 sequence (looked up): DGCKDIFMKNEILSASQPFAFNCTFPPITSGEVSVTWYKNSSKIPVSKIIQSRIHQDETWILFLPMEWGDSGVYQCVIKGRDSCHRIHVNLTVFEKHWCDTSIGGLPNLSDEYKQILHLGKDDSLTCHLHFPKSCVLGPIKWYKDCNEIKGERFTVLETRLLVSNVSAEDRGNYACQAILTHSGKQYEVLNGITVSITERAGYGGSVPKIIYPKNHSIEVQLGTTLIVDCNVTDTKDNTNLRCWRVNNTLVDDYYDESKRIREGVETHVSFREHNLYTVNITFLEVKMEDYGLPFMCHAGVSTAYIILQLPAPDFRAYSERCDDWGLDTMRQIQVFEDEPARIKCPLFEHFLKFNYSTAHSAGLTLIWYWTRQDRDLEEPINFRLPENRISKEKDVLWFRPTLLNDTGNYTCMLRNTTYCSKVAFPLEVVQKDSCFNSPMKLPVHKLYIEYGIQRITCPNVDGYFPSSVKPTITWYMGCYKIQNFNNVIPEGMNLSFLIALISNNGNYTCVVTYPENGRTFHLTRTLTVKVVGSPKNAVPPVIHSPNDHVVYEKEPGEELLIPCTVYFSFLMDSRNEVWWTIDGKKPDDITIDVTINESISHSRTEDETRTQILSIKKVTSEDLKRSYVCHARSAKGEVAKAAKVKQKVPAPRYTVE

T2: human IL-36R extracellular domain expressed with a C-terminal mouse IgG2a Fc tag (hIL-36R-mFc) (human; mouse, UniProt Q9HB29 20-337)
T2 construct: not shown: mouse IgG2a Fc, E98-K330
T2 sequence (looked up): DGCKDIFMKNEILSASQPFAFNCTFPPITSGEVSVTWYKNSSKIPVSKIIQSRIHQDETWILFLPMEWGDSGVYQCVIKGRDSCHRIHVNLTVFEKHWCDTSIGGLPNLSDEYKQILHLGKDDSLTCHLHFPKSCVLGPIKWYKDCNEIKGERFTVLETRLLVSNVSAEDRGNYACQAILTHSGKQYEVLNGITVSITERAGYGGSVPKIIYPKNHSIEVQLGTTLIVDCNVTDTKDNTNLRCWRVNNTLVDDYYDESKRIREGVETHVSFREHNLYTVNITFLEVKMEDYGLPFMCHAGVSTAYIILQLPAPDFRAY


Columns and labels:
[1] = molecular target: T3, human IL-36R extracellular domain expressed with a C-terminal myc-myc-hexahistidine tag (hIL-36R-MMH) (human, UniProt Q9HB29 20-337); experiment: SPR Biacore T200, mAb captured on anti-hFc, 25C, PBS-T pH 7.4 running buffer
T3 construct: also called Human IL-36R-MMH; REGN2105
Protocol: (§1) Additional binding experiments were performed to determine the effect of pH on the rate of dissociation of IL-36R bound to purified anti-IL-36R antibodies, which was determined using a real-time surface plasmon resonance biosensor using a Biacore T200 instrument. The Biacore sensor surface was first derivatized by amine coupling with a monoclonal mouse anti-human Fc antibody (GE, # BR-1008-39) to capture anti-IL-36R antibodies. […] Different concentrations of hIL-36R-MMH and mfIL-36R-MMH prepared in PBS-T, pH7.4 buffer (ranging from 100 nM to 11.11 nM, 3-fold dilutions) were injected over the anti-IL-36R antibody captured surface for 4 minutes at a flow rate of 50 μL/minute and their dissociation in two running buffers, PBS-T, pH7.4 and PBS-T, pH 6.0, was monitored for 10 minutes. All of these binding kinetics experiments were performed at 25° C. and 37° C. Kinetic dissociation constant (kd) were determined by fitting the real-time sensorgrams to a 1:1 binding model using Scrubber 2.0c curve fitting software. Binding dissociative half-lives (t_{1/2}) were calculated from kd as: […]

[2] = molecular target: T3, human IL-36R extracellular domain …; experiment: SPR Biacore T200, mAb captured on anti-hFc, 25C, PBS-T pH 6.0 running buffer
Protocol: as §1

[3] = molecular target: T1, in-line fusion protein of human IL-36R …; experiment: SPR Biacore 4000, mAb captured on anti-hFc, 25C
Protocol: (§2) Equilibrium dissociation constants (KD values) for IL-36R binding to purified anti-IL-36R antibodies were determined using a real-time surface plasmon resonance biosensor using a Biacore 4000 instrument. The Biacore sensor surface was first derivatized by amine coupling with a monoclonal mouse anti-human Fc antibody (GE, # BR-1008-39) to capture anti-IL-36R monoclonal antibodies. All binding studies were performed in 0.01 M Hepes pH 7.4, 0.15 M NaCl, 3 mM EDTA, and 0.05% v/v Surfactant Tween-20 (HBS-ET running buffer) at 25° C. and 37° C. Different concentrations of IL-36R reagents, human IL-36R extracellular domain expressed with a C-terminal myc-myc-hexahistidine tag (hIL-36R-MMH), Macaca fascicularis IL-36R extracellular domain expressed with a C-terminal myc-myc-hexahistidine tag (mfIL-36R-MMH: mROR1 signal sequence (M1-A29). Macaca fascicularis IL36R_ecto domain (D20-A336).mycmycHis6), human IL-36R extracellular domain expressed with a C-terminal mouse IgG2a Fc tag (hIL-36R-mFc: mROR1 signal sequence (M1-A29)-human IL36R (D20-Y337)-mouse IgG2aFc (E98-K330)) or an in-line fusion protein of human IL-36R extracellular domain and IL1RAcP extracellular domain expressed with mouse IgG2a Fc tag (hIL-36R-Trap-mFc: mROR1 signal sequence (M1-A29)-human IL36R ecto domain (D20-Y337)-human IL1RacP ecto domain(S21-E359)-mouse IgG2aFc) in HBS-ET running buffer (ranging from 100 nM to 3.7 nM, 3-fold dilutions) were injected over the anti-IL-36R antibody captured surface for 4 minutes at a flow rate of 30 μL/minute and their dissociation in HBS-ET running buffer was monitored for 10 minutes. Kinetic association rate constant (kₐ) and dissociation rate constant (kd) were determined by fitting the real-time sensorgrams to a 1:1 binding model using Scrubber 2.0c curve fitting software. Binding dissociation equilibrium constants (KD) and dissociative half-lives (t_{1/2}) were calculated from the kinetic rate constants as: […]

[4] = molecular target: T2, human IL-36R extracellular domain …; experiment: SPR Biacore 4000, mAb captured on anti-hFc, 25C
Protocol: as §2

[5] = molecular target: T3, human IL-36R extracellular domain …; experiment: SPR Biacore T200, mAb captured on anti-hFc, 37C, PBS-T pH 7.4 running buffer
Protocol: as §1

[6] = molecular target: T1, in-line fusion protein of human IL-36R …; experiment: SPR Biacore 4000, mAb captured on anti-hFc, 37C
Protocol: as §2

[7] = molecular target: T2, human IL-36R extracellular domain …; experiment: SPR Biacore 4000, mAb captured on anti-hFc, 37C
Protocol: as §2

[8] = molecular target: T3, human IL-36R extracellular domain …; experiment: SPR Biacore T200, mAb captured on anti-hFc, 37C, PBS-T pH 6.0 running buffer
Protocol: as §1

| Binder | 100 nM Human IL-36R-MMH Bound (RU) [1] [RU] | koff [1] [s⁻¹] | t1/2 [1] [min] | 100 nM Human IL-36R-MMH Bound (RU) [2] [RU] | koff [2] [s⁻¹] | t1/2 [2] [min] | 100 nM hIL-36R-Trap-mFc Bound (RU) [3] [RU] | Kd [3] [nM] | koff [3] [s⁻¹] | kon [3] [M⁻¹ s⁻¹] | t1/2 [3] [min] | 100 nM hIL-36R-mFc Bound (RU) [4] [RU] | 100 nM hIL-36R-MMH Bound (RU) [5] [RU] | koff [5] [s⁻¹] | t1/2 [5] [min] | 100 nM hIL-36R-Trap-mFc Bound (RU) [6] [RU] | Kd [6] [nM] | koff [6] [s⁻¹] | kon [6] [M⁻¹ s⁻¹] | t1/2 [6] [min] | further results |
| --- | --- | --- | --- | --- | --- | --- | --- | --- | --- | --- | --- | --- | --- | --- | --- | --- | --- | --- | --- | --- | --- |
| H4H14728P (antibody, human IgG4 S228P, kappa, V domains shown, Fully human anti-IL-36R antibody) VH: QVQLQESGPGLVKPSQTLSLTCTVSGGSISSADYYWSWIRQHPGKGLEWIGSIYYTGSTYYNPSLKSRLTISIDTSENQFSLKLTSLTAADTAVYYCASEEANWGSHFDSWGQGTLVTVSS VL: DIQMTQSPSSLSASVGDRVTITCRASQSIDNFLNWYQQKPGKAPKLLIYAASSLQSGVPSRFSGSGSGTDFTLTISSLQPEDFASYYCQHSHSAHPITFGQGTRLEIKR | 103 | 0.000898 | 13 | 96 | 0.000887 | 13 | 63 | 14 | 0.000565 | 40300 | 20 | 7 | 121 | 0.00296 | 4 | 89 | 40.9 | 0.00198 | 48500 | 6 | 100 nM hIL-36R-mFc Bound (RU) [7]: 11 RU; Kd [7]: 28.7 nM; koff [7]: 0.000465 s⁻¹; kon [7]: 16200 M⁻¹ s⁻¹; t1/2 [7]: 25 min; 100 nM hIL-36R-MMH Bound (RU) [8]: 114 RU; koff [8]: 0.00306 s⁻¹; t1/2 [8]: 4 min |
| H4H14731P (antibody, human IgG4 S228P, kappa, V domains shown, Fully human anti-IL-36R antibody) VH: QLQLQESGPGLVKPSETLSLTCTVSGGSISSSNYYWGWIRQPPGKRLEWIGSIYYSGSTYYNPSLKTRVTISVDTSKNQFSLKLTSVTAADTAVYYCAREEAAALTHFDFWGQGTLVTVSS VL: DIQMTQSPSSLSASVGDRVTITCRASQSISNYLNWYQQKPGKAPKLLIFAASSLQSGVPSRFSGSGSGTDFTLTISSLQPEDFATYYCQHSHSSHPITFGQGTRLEIKR | 65 | 0.000553 | 21 | 43 | 0.000679 | 17 | 60 | 4.45 | 0.000201 | 45200 | 57 | 10 | 91 | 0.00108 | 11 | 78 | 9.77 | 0.000514 | 52600 | 22 | Kd [4]: 5.79 nM; koff [4]: 0.000323 s⁻¹; kon [4]: 55800 M⁻¹ s⁻¹; t1/2 [4]: 36 min; 100 nM hIL-36R-mFc Bound (RU) [7]: 12 RU; Kd [7]: 6.43 nM; koff [7]: 0.00045 s⁻¹; kon [7]: 69900 M⁻¹ s⁻¹; t1/2 [7]: 26 min; 100 nM hIL-36R-MMH Bound (RU) [8]: 84 RU; koff [8]: 0.00201 s⁻¹; t1/2 [8]: 6 min |

Now those with a lower Kd [3], led by results:

| 100 nM Human IL-36R-MMH Bound (RU) [1] [RU] | koff [1] [s⁻¹] | t1/2 [1] [min] | 100 nM Human IL-36R-MMH Bound (RU) [2] [RU] | koff [2] [s⁻¹] | t1/2 [2] [min] | 100 nM hIL-36R-Trap-mFc Bound (RU) [3] [RU] | Kd [3] [nM] | koff [3] [s⁻¹] | kon [3] [M⁻¹ s⁻¹] | t1/2 [3] [min] | 100 nM hIL-36R-mFc Bound (RU) [4] [RU] | 100 nM hIL-36R-MMH Bound (RU) [5] [RU] | koff [5] [s⁻¹] | t1/2 [5] [min] | 100 nM hIL-36R-Trap-mFc Bound (RU) [6] [RU] | Kd [6] [nM] | koff [6] [s⁻¹] | kon [6] [M⁻¹ s⁻¹] | t1/2 [6] [min] | Binder | further results |
| --- | --- | --- | --- | --- | --- | --- | --- | --- | --- | --- | --- | --- | --- | --- | --- | --- | --- | --- | --- | --- | --- |
| 111 | 0.00042 | 28 | 99 | 0.000842 | 14 | 173 | 0.404 | 8.07e-05 | 200000 | 143 | 142 | 159 | 0.000704 | 16 | 257 | 0.264 | 0.000123 | 467000 | 94 | H4H14709P (antibody, human IgG4 S228P, kappa, V domains shown, Fully human anti-IL-36R antibody) VH: EVQLVESGGGLVQPGGSLRLSCAASGFTFSDYAMSWVRQAPGKGLEWVSGISGNGGDTYYGDFVKGRFTISRDNSKNTLYLQMNSLRGEDTAAYFCVIDLDYWGQGTLVTVSS VL: DIQMTQSPSTLSASEGDRVTITCRASQSISSWLAWYQQKPGKAPRLLIYKASILGDGVPSRFSGSGSGTEFTLTISSLQPDDFATYYCHQYNSYLWTFGQGTKVEIKR | Kd [4]: 0.335 nM; koff [4]: 8.62e-05 s⁻¹; kon [4]: 257000 M⁻¹ s⁻¹; t1/2 [4]: 134 min; 100 nM hIL-36R-mFc Bound (RU) [7]: 211 RU; Kd [7]: 0.205 nM; koff [7]: 0.000112 s⁻¹; kon [7]: 543000 M⁻¹ s⁻¹; t1/2 [7]: 104 min; 100 nM hIL-36R-MMH Bound (RU) [8]: 146 RU; koff [8]: 0.00172 s⁻¹; t1/2 [8]: 7 min |
| 32 | 0.000865 | 13 | 28 | 0.000918 | 13 | 161 | 2.95 | 0.00136 | 462000 | 8 | 145 | 40 | 0.0011 | 10 | 212 | 3.63 | 0.00182 | 501000 | 6 | H4H14732P2 (antibody, human IgG4 S228P, kappa, V domains shown, Fully human anti-IL-36R antibody) VH: EVQLVESGGGLVQPGRSLRLSCAASGFTFDDYAMHWVRQAPGKGLEWVSGINWAGYNIDYADSVKGRFTISRDNAKNSLYLQMNSLRAEDTALYYCAKDMRGFSYGFPFDYWGQGTLVTVSS VL: not shown | Kd [4]: 1.4 nM; koff [4]: 0.000797 s⁻¹; kon [4]: 570000 M⁻¹ s⁻¹; t1/2 [4]: 14 min; 100 nM hIL-36R-mFc Bound (RU) [7]: 195 RU; Kd [7]: 2 nM; koff [7]: 0.00127 s⁻¹; kon [7]: 635000 M⁻¹ s⁻¹; t1/2 [7]: 9 min; 100 nM hIL-36R-MMH Bound (RU) [8]: 36 RU; koff [8]: 0.00123 s⁻¹; t1/2 [8]: 9 min |

Source: US20200017592A1 (Regeneron, published 2020)
